The source of these data is patent US20230272011A1 (AVACTA LIFE SCIENCES, published 2023).

Assay [1] deals with T1, mouse serum albumin (mouse, UniProt P07724 25-608).
T1 construct: also called MSA
Put plainly: Octet biolayer interferometry, pH 6.0. Here is the method: (§1) Biotinylated antigen was captured onto SA sensors at 1 μg/ml for 600 seconds in a buffer comprising PBS-T (0.01% Tween 20)+1% casein at either pH 6.0 or 7.4. Association was carried out for 300 seconds and dissociation for 600 seconds, and regeneration was performed using 10 mM glycine pH 1.5 (GE Healthcare) for 3×5 seconds. All steps were carried out at 1000 rpm and 25° C. Purified AFFIMER® polypeptide in two-fold serial dilutions was analyzed at a starting concentration of approximately 10× K_{D value}. Kinetics analyses were carried out using the Octet data analysis software, subtracting the reference sensor (loaded with antigen), aligning the Y-axis to baseline, and using inter-step correction to align association to dissociation. Savitzky-Golay filtering was applied and the data processed. Analysis of the data was carried out with a 1:1 model, global fit, Rₘₐₓ unlinked by sensor.
(§2) AFFIMER® polypeptides were incubated with AcTEV for 1 hour at 30° C. as recommend by the manufacturer (Invitrogen) and removal of cleaved His tag by binding NiNTA resin (Generon) and collecting the cleaved protein flow through. […] Pharmacokinetic profile of IV-injected His tag cleaved AFFIMER® protein compared to C-terminally His-tagged AFFIMER® protein was evaluated.
For orientation: Biolayer interferometry detects binding as a change in optical thickness at a sensor tip.

Assay [2] deals with T2, cynomolgus serum albumin (cynomolgus).
T2 construct: also called CSA; cyno serum albumin
T2 sequence (A2V9Z4 25-608): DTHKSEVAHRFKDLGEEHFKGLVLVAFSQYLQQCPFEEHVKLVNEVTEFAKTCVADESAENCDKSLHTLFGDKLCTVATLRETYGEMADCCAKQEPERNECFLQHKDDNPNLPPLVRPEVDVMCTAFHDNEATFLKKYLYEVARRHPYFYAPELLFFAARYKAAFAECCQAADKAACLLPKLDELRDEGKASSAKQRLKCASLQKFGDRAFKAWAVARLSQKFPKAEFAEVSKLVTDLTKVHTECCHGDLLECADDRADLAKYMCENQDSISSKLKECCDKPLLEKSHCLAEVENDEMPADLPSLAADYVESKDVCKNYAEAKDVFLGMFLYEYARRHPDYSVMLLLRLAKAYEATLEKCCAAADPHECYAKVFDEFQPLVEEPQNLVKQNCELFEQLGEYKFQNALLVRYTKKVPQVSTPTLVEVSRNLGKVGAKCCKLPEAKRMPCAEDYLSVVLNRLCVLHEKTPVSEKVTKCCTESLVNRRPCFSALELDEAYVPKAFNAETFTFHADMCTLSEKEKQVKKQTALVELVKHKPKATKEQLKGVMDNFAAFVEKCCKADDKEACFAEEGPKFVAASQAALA
Briefly: Octet biolayer interferometry, pH 6.0. The protocol: as §1, §2

For assay [3], the target named is T3, human serum albumin (human, UniProt P02768 25-609).
T3 construct: mature; Bought protein; biotinylated in the Octet and HTRF assays; also called HSA; HuSA
Briefly: Octet biolayer interferometry, pH 6.0. The protocol: as §1, §2

Assay [4] has as its target T1, mouse serum albumin. Briefly: Octet biolayer interferometry, pH 7.4. The protocol: as §1, §2
Assay [5] deals with T2, cynomolgus serum albumin. Put plainly: Octet biolayer interferometry, pH 7.4. Here is the method: as §1, §2
For assay [6], the target named is T3, human serum albumin. Put plainly: Octet biolayer interferometry, pH 7.4. Here is the method:
as §1, §2

The next assay has as its target T4, mPD-L1 (mouse, UniProt Q9EP73 19-238, limits assumed).
T4 construct: May be the same reagent as the mouse PD-L1-Fc of the Biacore run
Briefly: competition ELISA: mPD-L1 pre-incubated with the AFFIMER polypeptide and added to coated mPD-1; blocked ligand mPD-1. Here is the method:
Briefly, PD-1 was coated overnight on the plate at 1 μg/ml in carbonate buffer. Then plates were saturated using 5% Casein/PBS buffer. […] After saturation, the mix was added to the plates and incubated for 90 minutes. Plates were then washed and the detection polyclonal antibody, biotinylated anti-PD-L1, was added. After washing the plates, streptavidin-HRP was added for 30 minutes. After a final wash, development of the reaction was performed using TMB (Pierce) and the plates were read using a plate reader at 450 nm (FIG. 26C).
For orientation: An ELISA detects its analyte on a solid surface through an enzyme-linked reagent.

The target of assay [7] is T1, mouse serum albumin. Briefly: Octet biolayer interferometry, biotinylated albumin on SA sensors, pH 7.4. The protocol:
as §1

For assay [8], the target named is T2, cynomolgus serum albumin. The description is as above. Here is the method: as §1
For assay [9], the target named is T3, human serum albumin. The description is as above. The protocol:
as §1

For assay [10], the target named is T1, mouse serum albumin. Briefly: BLI (Octet), biotinylated albumin on SA sensor, pH 7.4. Here is the method: as §1
Assay [11] has as its target T2, cynomolgus serum albumin. The assay is described as above. The protocol:
as §1

For assay [12], the target named is T3, human serum albumin. Described as above. The protocol:
as §1

The target of assay [13] is T1, mouse serum albumin. Briefly: Octet biolayer interferometry, biotinylated albumin on SA sensors, pH 6.0. The protocol: as §1
The target in assay [14] is T2, cynomolgus serum albumin. The assay is described as above. The protocol:
as §1

Assay [15] deals with T3, human serum albumin. The description is as above. Here is the method:
as §1

Assay [16] addresses T5, canine serum albumin (canine, UniProt P49822 25-608). Briefly: binding ELISA on coated albumin, pH 6.0, panel 'Canine SA Binding at pH 6.0'. The protocol: (§3) Briefly, ELISA was performed as follow:
(§4) Human (Sigma-Aldrich); Cynomolgus and Mouse (Abcam); Equine (Abcam); Canine (Abcam); Mouse (Sigma-Aldrich); Rabbit (Sigma-Aldrich); Porcine (Sigma-Aldrich);, and Rat (Sigma-Aldrich) serum albumin were coated overnight on 96 well plates (Corning Costar) at 1 μg/ml in PBS at the appropriate pH (pH 6.0 or 7.4). Plates were saturated using 5% Casein (Sigma-Aldrich) buffer in PBS. […] Plates were then washed and AFFIMER® proteins were detected using a biotinylated polyclonal antibody anti-Cystatin (R&D System) for 90 minutes. After washing, streptavidin-HRP (Thermo Fisher Scientific) was added and incubated for 30 minutes.

Assay [17] addresses T1, mouse serum albumin. Briefly: BLI (Octet), biotinylated albumin on SA sensor, pH 6.0. Here is the method:
as §1

The target of assay [18] is T2, cynomolgus serum albumin. Described as above. Here is the method: as §1
Assay [19] concerns the target T3, human serum albumin. The assay is described as above. The protocol: as §1
In assay [20] the target is T3, human serum albumin. Put plainly: binding ELISA on coated albumin, pH 6.0, panel 'HSA Binding at pH 6.0'. Here is the method:
as §3, §4

In assay [21] the target is T1, mouse serum albumin. Briefly: SPR (Biacore T200), albumin amine-coupled to CM5, Affimer analyte, pH 7.4. The protocol: (§5) Affinities for mouse, human, and cynomolgus serum were also measured at pH 7.4 for four (4) AFFIMER® binders using surface plasmon resonance (SPR) (FIG. 5, Table 5). […] A concentration titration of AFFIMER® monomers was run as analyte at a flow rate of 30 μl/min or 60 μl/min. Fc2-1, Fc3-1 and Fc4-1 kinetic data was blank subtracted and fit to a 1:1 Langmuir binding model (BIAcore Evalution software; GE) to calculate KD values.
(Surface plasmon resonance follows binding to a sensor surface in real time, without labels.)

Assay [22] deals with T2, cynomolgus serum albumin. Described as above. Here is the method:
as §5

Assay [23] has as its target T3, human serum albumin. The assay is described as above. Here is the method: as §5
In a further assay the target is equine serum albumin (equine, UniProt P35747 25-607). Briefly: binding ELISA, coated albumin, pH 7.4. Here is the method:
as §3, §4

The target in assay [24] is T2, cynomolgus serum albumin. Put plainly: binding ELISA, coated albumin, pH 7.4. The protocol: as §3, §4
In another assay the target is rat serum albumin (rat, UniProt P02770 25-608). Put plainly: binding ELISA, coated albumin, pH 7.4. Here is the method:
as §3, §4

For assay [25], the target named is T5, canine serum albumin. Briefly: binding ELISA, coated albumin, pH 7.4. Here is the method:
as §3, §4

The next assay concerns the target porcine serum albumin (porcine, UniProt P08835 25-607). Put plainly: binding ELISA, coated albumin, pH 7.4. The protocol:
as §3, §4

Another assay addresses rabbit serum albumin (rabbit, UniProt P49065 25-608). Put plainly: binding ELISA, coated albumin, pH 7.4. The protocol: as §3, §4
Assay [26] has as its target T3, human serum albumin. Briefly: binding ELISA, coated albumin, pH 7.4. Here is the method: as §3, §4

T1 sequence (P07724 25-608 limits assumed): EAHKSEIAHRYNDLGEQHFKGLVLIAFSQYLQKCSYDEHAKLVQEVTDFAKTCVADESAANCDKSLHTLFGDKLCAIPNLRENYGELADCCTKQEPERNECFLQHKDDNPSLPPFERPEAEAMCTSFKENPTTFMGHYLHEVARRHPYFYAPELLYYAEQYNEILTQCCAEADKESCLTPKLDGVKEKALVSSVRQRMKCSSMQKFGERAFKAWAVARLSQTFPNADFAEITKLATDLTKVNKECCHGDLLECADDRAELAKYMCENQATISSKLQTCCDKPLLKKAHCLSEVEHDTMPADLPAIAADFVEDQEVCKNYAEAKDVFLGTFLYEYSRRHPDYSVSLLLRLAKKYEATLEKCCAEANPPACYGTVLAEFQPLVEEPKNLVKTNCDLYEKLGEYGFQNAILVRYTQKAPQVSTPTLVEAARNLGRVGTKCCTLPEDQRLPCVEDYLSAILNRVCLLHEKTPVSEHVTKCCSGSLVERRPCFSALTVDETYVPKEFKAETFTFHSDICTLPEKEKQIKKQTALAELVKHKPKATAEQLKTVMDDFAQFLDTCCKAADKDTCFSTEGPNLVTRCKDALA
T5 sequence (P49822 25-608 limits assumed): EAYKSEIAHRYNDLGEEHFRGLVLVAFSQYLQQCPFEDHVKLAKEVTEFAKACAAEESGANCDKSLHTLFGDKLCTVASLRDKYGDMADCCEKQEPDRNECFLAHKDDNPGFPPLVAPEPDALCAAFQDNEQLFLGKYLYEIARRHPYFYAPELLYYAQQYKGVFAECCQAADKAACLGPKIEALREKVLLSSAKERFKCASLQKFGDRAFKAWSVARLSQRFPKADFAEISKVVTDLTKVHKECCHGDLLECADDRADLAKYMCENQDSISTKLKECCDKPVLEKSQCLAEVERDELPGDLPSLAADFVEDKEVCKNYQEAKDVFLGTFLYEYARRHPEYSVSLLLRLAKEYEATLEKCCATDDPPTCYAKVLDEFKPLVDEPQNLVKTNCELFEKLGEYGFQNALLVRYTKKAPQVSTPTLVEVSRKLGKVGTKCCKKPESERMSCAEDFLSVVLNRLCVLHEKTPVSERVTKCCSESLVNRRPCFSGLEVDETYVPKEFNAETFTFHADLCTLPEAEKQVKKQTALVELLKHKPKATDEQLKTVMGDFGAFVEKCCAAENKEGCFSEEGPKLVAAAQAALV
Sequence of porcine serum albumin (P08835 25-607 limits assumed): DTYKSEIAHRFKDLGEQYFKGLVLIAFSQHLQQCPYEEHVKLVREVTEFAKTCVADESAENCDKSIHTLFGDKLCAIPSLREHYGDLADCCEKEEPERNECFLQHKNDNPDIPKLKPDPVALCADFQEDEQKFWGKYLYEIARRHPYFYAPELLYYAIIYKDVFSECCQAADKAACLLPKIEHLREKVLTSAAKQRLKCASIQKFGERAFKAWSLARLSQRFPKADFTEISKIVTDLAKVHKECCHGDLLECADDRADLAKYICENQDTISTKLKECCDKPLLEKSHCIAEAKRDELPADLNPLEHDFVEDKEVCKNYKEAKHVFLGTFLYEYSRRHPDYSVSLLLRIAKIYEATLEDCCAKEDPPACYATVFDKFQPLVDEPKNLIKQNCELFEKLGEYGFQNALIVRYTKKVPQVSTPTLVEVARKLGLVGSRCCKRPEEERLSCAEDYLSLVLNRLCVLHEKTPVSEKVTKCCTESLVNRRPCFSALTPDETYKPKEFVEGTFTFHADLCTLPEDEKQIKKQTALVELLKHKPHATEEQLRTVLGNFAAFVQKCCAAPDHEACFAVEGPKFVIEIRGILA
Sequence of equine serum albumin (P35747 25-607 limits assumed): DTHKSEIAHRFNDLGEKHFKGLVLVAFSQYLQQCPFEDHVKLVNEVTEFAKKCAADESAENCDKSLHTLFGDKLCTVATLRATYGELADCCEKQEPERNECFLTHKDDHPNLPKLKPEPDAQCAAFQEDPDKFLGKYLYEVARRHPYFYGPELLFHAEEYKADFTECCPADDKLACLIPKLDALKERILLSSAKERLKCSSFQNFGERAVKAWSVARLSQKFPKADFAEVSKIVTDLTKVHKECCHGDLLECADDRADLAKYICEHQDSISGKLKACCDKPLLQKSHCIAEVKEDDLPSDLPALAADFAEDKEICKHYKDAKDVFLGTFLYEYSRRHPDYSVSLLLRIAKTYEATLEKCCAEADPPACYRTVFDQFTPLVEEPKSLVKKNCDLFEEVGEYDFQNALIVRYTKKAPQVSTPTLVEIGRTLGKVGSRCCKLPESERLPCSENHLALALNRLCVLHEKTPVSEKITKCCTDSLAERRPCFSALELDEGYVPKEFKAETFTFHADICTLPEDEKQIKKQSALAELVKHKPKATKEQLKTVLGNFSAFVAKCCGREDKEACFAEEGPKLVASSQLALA
T4 sequence (Q9EP73 19-238 limits assumed): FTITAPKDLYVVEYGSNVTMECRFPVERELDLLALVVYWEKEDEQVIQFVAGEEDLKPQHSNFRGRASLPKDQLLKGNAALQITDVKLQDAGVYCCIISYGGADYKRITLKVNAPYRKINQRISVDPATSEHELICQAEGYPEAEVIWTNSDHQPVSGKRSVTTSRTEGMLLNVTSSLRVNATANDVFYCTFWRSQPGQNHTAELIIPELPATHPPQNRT
Sequence of rat serum albumin (P02770 25-608 limits assumed): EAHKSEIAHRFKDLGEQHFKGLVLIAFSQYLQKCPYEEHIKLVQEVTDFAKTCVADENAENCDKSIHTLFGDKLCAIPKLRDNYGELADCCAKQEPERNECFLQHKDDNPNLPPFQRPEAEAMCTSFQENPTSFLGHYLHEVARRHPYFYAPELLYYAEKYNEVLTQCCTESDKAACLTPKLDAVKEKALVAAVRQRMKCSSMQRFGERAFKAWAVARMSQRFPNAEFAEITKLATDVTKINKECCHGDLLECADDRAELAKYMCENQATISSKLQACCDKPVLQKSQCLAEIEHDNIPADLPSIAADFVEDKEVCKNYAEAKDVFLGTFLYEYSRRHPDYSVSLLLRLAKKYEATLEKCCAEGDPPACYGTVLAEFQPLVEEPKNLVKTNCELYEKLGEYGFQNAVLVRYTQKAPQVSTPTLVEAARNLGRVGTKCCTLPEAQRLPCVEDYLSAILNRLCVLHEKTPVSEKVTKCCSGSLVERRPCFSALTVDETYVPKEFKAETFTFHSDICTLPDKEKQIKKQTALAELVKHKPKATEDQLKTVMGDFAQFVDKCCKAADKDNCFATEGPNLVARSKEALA
Sequence of rabbit serum albumin (P49065 25-608 limits assumed): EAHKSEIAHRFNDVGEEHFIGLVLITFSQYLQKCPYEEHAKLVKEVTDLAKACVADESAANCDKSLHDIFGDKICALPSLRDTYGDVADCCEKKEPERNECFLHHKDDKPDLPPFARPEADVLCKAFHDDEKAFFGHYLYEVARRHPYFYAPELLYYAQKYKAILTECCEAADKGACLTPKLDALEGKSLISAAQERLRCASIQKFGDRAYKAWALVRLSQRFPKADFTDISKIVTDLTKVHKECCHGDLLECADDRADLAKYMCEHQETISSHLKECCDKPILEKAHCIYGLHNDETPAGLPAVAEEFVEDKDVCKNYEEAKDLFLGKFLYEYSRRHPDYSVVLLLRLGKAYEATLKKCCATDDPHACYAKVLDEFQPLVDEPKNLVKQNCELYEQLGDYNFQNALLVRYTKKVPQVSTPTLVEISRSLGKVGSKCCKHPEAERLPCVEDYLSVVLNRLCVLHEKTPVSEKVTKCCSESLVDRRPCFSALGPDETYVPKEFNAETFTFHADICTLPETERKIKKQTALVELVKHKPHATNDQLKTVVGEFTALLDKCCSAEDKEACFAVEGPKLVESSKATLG

B1: HSA-41, C-terminal 6x His tag cleaved (designed binder)
chain: MIPRGLSEAKPATPEIQEIVDKVKPQLEEKTNETYGKLEAVQYKTQVLANFFQRRWPGSTNYYIKVRAGDNKYMHLKVFNGPWKFRNTDRGADRVLTGYQVDKNKDDELTGFEQKLISEEDL
notes: also called His tag cleaved AFFIMER protein; C-terminally His tag cleaved AFFIMER lead clone
What is called Kd is the concentration at which binding is half-saturated. A lower Kd goes with a tighter complex. As for B1, the dissociation constant Kd was 38.1 nM with mouse serum albumin [1]; 189 nM in the assay with cynomolgus serum albumin [2]; 4.71 nM with human serum albumin [3]; 104 nM with mouse serum albumin [4]; 280 nM in the assay with cynomolgus serum albumin [5]; 7.65 nM with human serum albumin [6].

B2: AVA04-182 (designed binder)
chain: MIPRGLSEAKPATPEIQEIVDKVKPQLEEKTNETYGKLEAVQYKTQVLAFALPEFEYMSTNYYIKVRAGDNKYMHLKVFNGPPMIRRKNEVADRVLTGYQVDKNKDDELTGF
notes: also called its control
Broadly, the IC50 is the concentration at which inhibition is half-maximal. A low value points to greater potency. On to B2, for which the IC50 with mPD-L1 came out at 112 nM.

B3: HSA-36 (designed binder)
chain: MIPRGLSEAKPATPEIQEIVDKVKPQLEEKTNETYGKLEAVQYKTQVLAGHYARYWPGSTNYYIKVRAGDNKYMHLKVFNGPWAQKSKVHQADRVLTGYQVDKNKDDELTGFHHHHHH
Broadly, the kon is the rate constant with which the complex forms. Higher therefore signals faster complex formation. As usually defined, the koff is the first-order rate constant of dissociation. Higher therefore signals fast dissociation. In general, EC50 (read off the curve) refers to the concentration needed to bring the measured effect to its halfway point. As usually defined, the EC50 is the concentration at which the effect is half-maximal. Lower therefore signals greater potency. Turning to B3, the kon was found to be 215000 M⁻¹ s⁻¹ with mouse serum albumin [7]; 18900 M⁻¹ s⁻¹ with human serum albumin [9]; 200000 M⁻¹ s⁻¹ with mouse serum albumin [13]; 10800 M⁻¹ s⁻¹ in the assay with cynomolgus serum albumin [14]; 15400 M⁻¹ s⁻¹ with human serum albumin [15]; 726000 M⁻¹ s⁻¹ with mouse serum albumin [21]. Besides, the kon was 106000 M⁻¹ s⁻¹ with cynomolgus serum albumin [22] and 22500 M⁻¹ s⁻¹ in the assay with human serum albumin [23]. Moreover, the koff was found to be 0.0505 s⁻¹ with cynomolgus serum albumin [8]; 0.00257 s⁻¹ with human serum albumin [9]; 0.0874 s⁻¹ in the assay with mouse serum albumin [13]; 0.0123 s⁻¹ in the assay with cynomolgus serum albumin [14]; 0.00175 s⁻¹ in the assay with human serum albumin [15]; 0.15 s⁻¹ in the assay with mouse serum albumin [21]. The koff amounted to 0.16 s⁻¹ with cynomolgus serum albumin [22] and 0.00451 s⁻¹ in the assay with human serum albumin [23]. Also, the Kd with mouse serum albumin [10] is 244 nM; with cynomolgus serum albumin [11] it was 2600 nM; with human serum albumin [12], 136 nM; with mouse serum albumin [17] it was 435 nM; in the assay with cynomolgus serum albumin [18] it was 1140 nM; with human serum albumin [19], 132 nM. Besides, the Kd was 207 nM in the assay with mouse serum albumin [21], 1510 nM in the assay with cynomolgus serum albumin [22] and 200 nM with human serum albumin [23]. The concentration for a half-maximal effect (EC50 (read off the curve)) with canine serum albumin [16] is approximately 200 nM; with human serum albumin [20], approximately 400 nM. The EC50 was 662 nM in the assay with equine serum albumin; 447 nM with cynomolgus serum albumin [24]; 9.73 nM with rat serum albumin; 383 nM with canine serum albumin [25]; 268 nM in the assay with porcine serum albumin; 863 nM with rabbit serum albumin. The molecule also had an EC50 in the assay with human serum albumin [26] of 687 nM.
